For 1 molecule, probability of SNAP-23 binding results are on record in PMC9894263.

The assay has as its target GLUT4 template complex Munc18-3:Syntaxin-4:VAMP2 (rat | not stated) (UniProt Q08850). In words: optical tweezers.

B1: full-length cysteine-free SNAP-23 ([change], [change], [change], [change], [change]) (natural protein)
chain: MDDLSPEEIQLRAHQVTDESLESTRRILGLAIESQDAGIKTITMLDEQGEQLNRIEEGMDQINKDMREAEKTLTELNKSSGLSVSPSNRTKNFESGKNYKATWGDGGDSSPSNVVSKQPSRITNGQPQQTTGAASGGYIKRITNDAREDEMEENLTQVGSILGNLKNMALDMGNEIDAQNQQIQKITEKADTNKNRIDIANTRAKKLIDS
Consider B1, for which the probability of SNAP-23 binding amounted to 0.42.
